Test [1] deals with HUVEC. Briefly: Endothelial cell tube (cord) formation on Matrigel. It is filed as cell-based, human. The protocol:
(§1) Cord formation assay of HUVEC in Matrigel™ (upper row). Cells in exponential growth phase were treated overnight with the indicated concentrations of EphB4 extracellular domain (ECD) prior to plating on Matrigel™. Cells were trypsinized and plated (1×10^5 cells/well) in a 24-well plate containing 0.5 ml Matrigel™. Shown are representative 20× phase contrast fields of cord formation after 8 hr plating on Matrigel™ in the continued presence of the test compounds as shown. Original magnification 200×. KS-SLK cells treated in a similar manner (middle row) in a cord formation assay on Matrigel™. […] After 7 days the plugs were removed, sectioned and stained with H&E to visualize cells migrating into the matrix.
Matrigel (60 μl of 10 mg/ml; Collaborative Lab #35423) is placed in each well of an ice-cold 96-well plate. The plate is allowed to sit at room temperature for 15 minutes then incubated at 37° C. for 30 minutes to permit the matrigel to polymerize. In the mean time, HUVECs are prepared in EGM-2 (Clonetic #CC3162) at a concentration of 2×10^5 cells/ml. The test compound is prepared at 2× the desired concentration (5 concentration levels) in the same medium. Cells (500 μl) and 2× drug (500 μl) is mixed and 200 μl of this suspension are placed in duplicate on the polymerized matrigel. After 24 h incubation, triplicate pictures are taken for each concentration using a Bioquant Image Analysis system. Drug effect (IC50) is assessed compared to untreated controls by measuring the length of cords formed and number of junctions.
Matrigel (60 μl of 10 mg/ml; Collaborative Lab, Cat. No. 35423) was placed in each well of an ice-cold 96-well plate. The plate was allowed to sit at room temperature for 15 minutes then incubated at 37° C. for 30 minutes to permit Matrigel to polymerize. In the mean time, human umbilical vein endothelial cells were prepared in EGM-2 (Clonetic, Cat. No. CC3162) at a concentration of 2×10^5 cells/ml. The test protein was prepared at 2× the desired concentration (5 concentration levels) in the same medium. Cells (500 μl) and 2× protein (500 μl) were mixed and 200 μl of this suspension were placed in duplicate on the polymerized Matrigel. After 24 h incubation, triplicate pictures were taken for each concentration using a Bioquant Image Analysis system. Protein addition effect (IC50) was assessed compared to untreated controls by measuring the length of cords formed and number of junctions.

Test [2] relates to vascularization of Matrigel plugs. In words: Murine Matrigel plug angiogenesis assay. It is filed as in vivo, mouse. Particulars: for vascularization of Matrigel plugs / in vivo angiogenesis: plugs with bFGF and VEGF, s.c., mice; for infiltration / invasion of cells into Matrigel plugs: plugs with growth factors. As to the method:
as §1
Matrigel supplemented with bFGF and VEGF with and without soluble EphB4 was injected s.c. into Balb/C nu/nu mice, forming semi-solid plugs, for six days. Plugs without growth factors had virtually no vascularization or vessel structures after 6 days (FIG. 21). In contrast, plugs supplemented with bFGF and VEGF had extensive vascularization and vessels throughout the plug.
In vivo angiogenesis was assayed in mice as growth of blood vessels from subcutaneous tissue into a Matrigel plug containing the test sample. Matrigel rapidly forms a solid gel at body temperature, trapping the factors to allow slow release and prolonged exposure to surrounding tissues. Matrigel (8.13 mg/ml, 0.5 ml) in liquid form at 4° C. was mixed with Endothelial Cell Growth Supplement (ECGS), test proteins plus ECGS or Matrigel plus vehicle alone (PBS containing 0.25% BSA). Matrigel (0.5 ml) was injected into the abdominal subcutaneous tissue of female nu/nu mice (6 wks old) along the peritoneal mid line. There were 3 mice in each group. The animals were cared for in accordance with institutional and NIH guidelines. At day 6, mice were sacrificed and plugs were recovered and processed for histology. Typically the overlying skin was removed, and gels were cut out by retaining the peritoneal lining for support, fixed in 10% buffered formalin in PBS and embedded in paraffin. Sections of 3 μm were cut and stained with H&E or Masson's trichrome stain and examined under light microscope

The test system of test [3] is B16 (melanoma). Briefly: B16 melanoma tumor in mice, soluble EphB4. It is filed as in vivo, mouse. The protocol: (§2) Tumors were injected premixed with Matrigel plus growth factors and soluble EphB4 subcutaneously. After 10 to 14 days, the mice were injected intravenously with FITC-lectin (green) to assess blood vessel perfusion.
30 athymic nude mice, BALB/c (nu/nu), were each injected with 1×10^6 B16 melanoma cells with 0.1 ml PBS mixed with 0.1 ml matrigel or 1.5×10^6 SCC15 cells resuspended in 200 μl of DMEM serum-free medium and injected subcutaneously on day 0 on the right shoulder region of mice. Proteins were injected intravenously or subcutaneously, around the tumor beginning on day 1 at a loading dose of 4 μg/mg, with weekly injections of 2 ug/mg. (10 μg/g, 50 μg/kg/day), and at 2 weeks post-inoculation. Mice are sacrificed on Day 14. Control mice received PBS 50 μl each day.

Test [4] has as its system MCF-7 (breast carcinoma). In words: MCF-7 tumor in mice, soluble EphB4. It is filed as in vivo, mouse. As to the method:
as §2

The subject of test [5] is bFGF-induced corneal neovascularization. Briefly: Mouse corneal micropocket assay. It is filed as in vivo. Particulars: mouse cornea, day 7 of implantation. The text has this:
To further investigate the antiangiogenic activity of soluble EphB4 in vivo, we studied the inhibitory effect of administration of soluble EphB4 on neovascularization in the mouse cornea induced by bFGF. Hydron Pellets implanted into corneal micropocket could induce angiogenesis, in the presence of growth factors, in a typically avascular area. The angiogenesis response in mice cornea was moderate, the appearance of vascular buds was delayed and the new capillaries were sparse and grew slowly.
Mouse corneal micropocket assay was performed according to that detailed by Kenyon et al., 1996. Briefly, hydron pellets (polyhydroxyethylmethacrylate [polyHEMA], Interferon Sciences, New Brunswick, N.J., U.S.A.) containing either 90 ng of bFGF (R&D) or 180 ng of VEGF (R&D Systems, Minneapolis, Minn., U.S.A.) and 40 μg of sucrose aluminium sulfate (Sigma) were prepared. Using an operating microscope, a stromal linear keratotomy was made with a surgical blade (Bard-Parker no. 15) parallel to the insertion of the lateral rectus muscle in an anesthetized animal. An intrastromal micropocket was dissected using a modified von Graefe knife (2^••30 mm). […] The difference in pellet location for each growth factor was determined to be necessary given the relatively weaker angiogenic stimulation of VEGF in this model. […]

This note sets out measurements from patent US9533026B2, “Polypeptide compounds for inhibiting angiogenesis and tumor growth” (VasGene Therapeutics, Inc., priority 2004, dated 2017).

Like-named read-outs stand apart in the source and are kept apart here.

B1: soluble EphB4: soluble EphB4 extracellular domain protein; exact construct not stated at the results (protein)
chain: LEETLLNTKLETADLKWVTFPQVDGQWEELSGLDEEQHSVRTYEVCDVQRAPGQAHWLRTGWVPRRGAVHVYATLRFTMLECLSLPRAGRSCKETFTVFYYESDADTATALTPAWMENPYIKVDTVAAEHLTRKRPGAEATGKVNVKTLRLGPLSKAGFYLAFQDQGACMALLSLHLFYKKCAQLTVNLTRFPETVPRELVVPVAGSCVVDAVPAPGPSPSLYCREDGQWAEQPVTGCSCAPGFEAAEGNTKCRACAQGTFKPLSGEGSCQPCPANSHSNTIGSAVCQCRVGYFRARTDPRGAPCTTPPSAPRSVVSRLNGSSLHLEWSAPLESGGREDLTYALRCRECRPGGSCAPCGGDLTFDPGPRDLVEPWVVVRGLRPDFTYTFEVTALNGVSSLATGPVPFEPVNVTTDREVPPAVSDIRVTRSSPSSLSLAWAVPRAPSGAVLDYEVKYHEKGAEGPSSVRFLKTSENRAELRGLKRGASYLVQVRARSEAGYGPFGQEHHSQTQLDESEGWREQLA
On to B1, for which the “endothelial cell tube / tubule / cord formation” value is reported as “significantly inhibited” in test [1] and “inhibits” in test [1] (listed as EphB4-ECD). Moreover, the results for the “vascularization of Matrigel plugs / in vivo angiogenesis” value in test [2] and in test [2] (listed as EphB4-ECD) were “markedly reduced” and “inhibits”, respectively. For the same molecule, the “infiltration / invasion of cells into Matrigel plugs” value in test [2] is on record as “significantly inhibited”; in test [2] (listed as EphB4 ECD), “almost completely inhibited”. Further, the tumor angiogenesis result in test [3] (B16, premixed with Matrigel plus growth factors, 10 to 14 days) is reported as “marked inhibition”; in test [4] (MCF-7, premixed with Matrigel plus growth factors, 10 to 14 days), “marked inhibition”. Further, the “corneal neovascularization induced by bFGF” value in test [5] is “markedly inhibited”.

B2: B4ECv3: soluble extracellular domain derivative of human EphB4, SEQ ID NO:1 (protein)
chain: MELRVLLCWASLAAALEETLLNTKLETADLKWVTFPQVDGQWEELSGLDEEQHSVRTYEVCEVQRAPGQAHWLRTGWVPRRGAVHVYATLRFTMLECLSLPRAGRSCKETFTVFYYESDADTATALTPAWMENPYIKVDTVAAEHLTRKRPGAEATGKVNVKTLRLGPLSKAGFYLAFQDQGACMALLSLHLFYKKCAQLTVNLTRFPETVPRELVVPVAGSCVVDAVPAPGPSPSLYCREDGQWAEQPVTGCSCAPGFEAAEGNTKCRACAQGTFKPLSGEGSCQPCPANSHSNTIGSAVCQCRVGYFRARTDPRGAPCTTPPSAPRSVVSRLNGSSLHLEWSAPLESGGREDLTYALRCRECRPGGSCAPCGGDLTFDPGPRDLVEPWVVVRGLRPDFTYTFEVTALNGVSSLATGPVPFEPVNVTTDREVPPAVSDIRVTRSSPSSLSLAWAVPRAPSGAWLDYEVKYHEKGAEGPSSVRFLKTSENRAELRGLKRGASYLVQVRARSEAGYGPFGQEHHSQTQLDESEGWREQGSKRAILQIEGKPIPNPLLGLDSTRTGHHHHHH
modifications: Recombinant B4ECv3 protein
With B2, the results for the “endothelial cell tube / tubule / cord formation” value in test [1] and in test [1] (listed as B4v3) were “inhibition” and “strong inhibition”, respectively. Further, the “infiltration / invasion of cells into Matrigel plugs” value in test [2] is recorded as “inhibits invasion”. The “in vivo tumor growth” value in test [3] (B16 co-injected with matrigel and growth factors) is “inhibits”; in test [4] (MCF-7 co-injected with matrigel and growth factors), “inhibits”. The “corneal neovascularization induced by bFGF” value in test [5] is listed as “inhibits”.
